The values below come from patent US20250122298A1 (OSSIANIX, published 2025).

Assay [1] addresses T1, recombinant human TfR-1 (human, UniProt P02786 89-760, limits assumed).
T1 construct: also called hTfR-1; hTfR1
Put plainly: ELISA on coated hTfR1, crude ExpiHEK expression media, normalised to TXP1. As for the experimental part:
FIG. 6. Expression level and hTfR1 binding of 20 single-region variants of TXP1 measured by ELISA. Variants were designed to remove potential MHCII binding motifs in each region separately with the mutations described in Table 5. Each deimmunized variant was transiently expressed in 0.5 ml scale in ExpiHEK cells and the crude media were tested by ELISA for hTfRIbinding and expression level in comparison to parental TXP1. The data were normalized to TXP1 and the variants with binding or expression >0.5-fold were evaluated further.
Mutating the primary anchoring residue in each MHCII binding motif was prioritized to minimize manipulation of the sequence with maximal reduction in binding score. Alternative positions were also considered when replacement of an anchor residue might disrupt the protein structure or where removing the anchor residue was insufficient to eliminate MHCII binding. Based on the in silico analyses, 20 single-region deimmunized variants of TXP1 (6 in region 1, 10 in region 2, and 4 in region 3) were genetically synthesized and evaluated (Table 5). Expression and hTfR1 binding were measured in crude media from transfected ExpiHEK cells (FIG. 6). […] Region 3 required all three substitutions to eliminate predicted MHCII binding, and all three mutations individually and when combined (TXP1-R3-1-4) were expressed well and retained parental levels of TfR-1 binding.

Assay [2] has as its target T2, recombinant cynomolgus TfR-1 (cynomolgus, UniProt H9EXL1 89-760 (rhesus entry)).
T2 construct: also called cTfR-1; cTfR1
Put plainly: SPR Biacore T200, multi-cycle kinetics, 1:1 model. In general terms: In SPR one partner is held on a chip, and binding of the other changes the refractive index at the surface.

Assay [3] addresses T2, recombinant cynomolgus TfR-1. The experiment in a line: ELISA, plate-coated recombinant cTfR1, anti-hFc HRP detection. As for the experimental part: (§1) TfR1 ELISA. Nunc MaxiSorp plates were coated with 100 ul of 1 μg/ml of in-house purified recombinant human, cynomolgus TfR1 or HSA and incubated at 4° C. overnight. Plates were incubated with blocking buffer (2.5% non-fat dry milk in PBST) for 1 hr at RT. Serial dilutions of TXP1, TXPID1 or TXP1D4 were mixed with non-fat dry milk in PBST to a final concentration of 2.5% and incubated for 30 min. Blocked VNAR antibody solutions (100 μl) were transferred to the blocked plates and incubated for 1 hr. Plates were washed with PBST and incubated with anti-hFc HRP-conjugated antibody diluted 1:5,000 (Sigma) in blocking buffer for 30 min. Plates were washed and developed with SureBlue TMB substrate. Were indicated the velocity of colorimetric reaction development was measured in the kinetic mode at 370 nm and the maximum peak was used for quantitation (Vmax at 370 nm). Alternatively, the TMB reaction was stopped with 1% HCl and absorbance was measured at 450 nm (OD at 450 nm).
In general terms: In an ELISA, binding on a coated surface is turned into a signal by an enzyme label.

Assay [4] addresses T1, recombinant human TfR-1. The experiment in a line: ELISA, plate-coated recombinant hTfR1, anti-hFc HRP detection. As for the experimental part:
as §1

Assay [5] deals with T1, recombinant human TfR-1. Put plainly: SPR Biacore T200, His-tagged TfR1 captured by anti-His, multi-cycle kinetics, 1:1 model. As for the experimental part:
Binding kinetics. Binding kinetics of TXP1, TXP1D1 and TXP1D4 were determined by surface plasmon resonance (SPR) using a Biacore T200 (GE Healthcare). A His-capture kit (GE Healthcare) was used to immobilize anti-His antibodies on CM5 chips (as recommended by the manufacturer). His-tagged recombinant hTfR1 in 0.1% BSA in HBS-EP+ buffer (GE Healthcare) was captured at flow rate 10 μl/min. Analyte binding was measured using the multi-cycle kinetic SPR method. Starting analyte concentrations at 400 nM and serially diluted in 1:4 in seven steps. Association and dissociation were measured for 360s and 1500s respectively, with flow rate at 30 μl/min. The chips were regenerated in 10 mM Glycine-HCl, pH 1.5. Sensorgrams were fitted using 1:1 binding model and kinetic constants determined using Biacore T200 Evaluation software (Cytiva).

Assay [6] has as its target T3, cell surface human TfR1 on hCMEC/D3 and SH-SY5Y cells (human, UniProt P02786 1-760).
T3 construct: whole, on cells; Endogenous receptor on the cell lines; also called cell surface TfR1; cell-surface hTfR1
Put plainly: flow cytometry on hCMEC/D3 cells on ice, binding to cell surface TfR1, anti-hFc Alexa647. As for the experimental part: Functional activity of the fully deimmunized variants was assessed using the hCMEC/D3 human endothelial cell line and the SY-SH5Y human neuronal cell line. Binding to hCMEC/D3 cells was assessed by incubation with serial antibody dilutions for 1h on ice to avoid internalization. The cells were fixed and binding to cell surface TfR1 was measured by flow cytometry. […] Internalization via cell-surface hTfR1 was assessed using the hCMEC/D3 and SY-SH5Y cell lines by incubation with the antibodies for 1 hour at 37° C.
Flow cytometry. hCMEC/D3 cells were seeded onto V-bottom 96-well plates at a density of 1×10⁴ cells/well. All incubations were carried out on ice to prevent internalization. After blocking in PBS containing 10% BSA (FACS buffer), cells were incubated with serial dilutions of TXP1. Cells were stained with propidium iodine (PI; Biolegend) for 20 min, followed by anti-hFc conjugated to Alexa647 diluted 1:300 (Jackson ImmunoResearch) for 30 min. After fixation in 4% PFA for 15 min, the cells were analyzed on a CytoFlex flow cytometer (Beckman Coulter). Gating of cells stained with secondary antibody alone was used to set the negative threshold for and the fluorescence intensity of approximately 1000 cells per condition was measured. EC50 values were calculated using a four parametric non-linear regression model.
A general note: Flow cytometry measures light scatter and fluorescence of single cells or particles in a stream.

T1 sequence (P02786 89-760 limits assumed): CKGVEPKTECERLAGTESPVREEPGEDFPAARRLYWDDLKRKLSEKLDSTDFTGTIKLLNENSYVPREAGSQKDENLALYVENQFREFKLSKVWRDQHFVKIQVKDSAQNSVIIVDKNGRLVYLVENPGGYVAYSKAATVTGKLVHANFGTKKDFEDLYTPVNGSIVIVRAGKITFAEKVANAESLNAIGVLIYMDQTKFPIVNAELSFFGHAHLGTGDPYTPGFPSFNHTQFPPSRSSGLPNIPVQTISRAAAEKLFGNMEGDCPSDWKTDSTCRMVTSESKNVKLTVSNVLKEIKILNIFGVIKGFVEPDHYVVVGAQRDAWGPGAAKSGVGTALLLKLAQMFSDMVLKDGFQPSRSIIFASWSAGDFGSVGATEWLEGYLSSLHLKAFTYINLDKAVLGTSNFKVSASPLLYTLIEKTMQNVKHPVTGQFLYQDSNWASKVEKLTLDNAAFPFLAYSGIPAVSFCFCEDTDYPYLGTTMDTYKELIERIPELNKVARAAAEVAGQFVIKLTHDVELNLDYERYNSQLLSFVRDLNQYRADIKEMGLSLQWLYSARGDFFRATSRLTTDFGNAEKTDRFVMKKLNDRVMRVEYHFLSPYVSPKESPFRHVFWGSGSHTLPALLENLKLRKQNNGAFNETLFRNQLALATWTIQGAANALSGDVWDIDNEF
T2 sequence (chain, as listed by the source): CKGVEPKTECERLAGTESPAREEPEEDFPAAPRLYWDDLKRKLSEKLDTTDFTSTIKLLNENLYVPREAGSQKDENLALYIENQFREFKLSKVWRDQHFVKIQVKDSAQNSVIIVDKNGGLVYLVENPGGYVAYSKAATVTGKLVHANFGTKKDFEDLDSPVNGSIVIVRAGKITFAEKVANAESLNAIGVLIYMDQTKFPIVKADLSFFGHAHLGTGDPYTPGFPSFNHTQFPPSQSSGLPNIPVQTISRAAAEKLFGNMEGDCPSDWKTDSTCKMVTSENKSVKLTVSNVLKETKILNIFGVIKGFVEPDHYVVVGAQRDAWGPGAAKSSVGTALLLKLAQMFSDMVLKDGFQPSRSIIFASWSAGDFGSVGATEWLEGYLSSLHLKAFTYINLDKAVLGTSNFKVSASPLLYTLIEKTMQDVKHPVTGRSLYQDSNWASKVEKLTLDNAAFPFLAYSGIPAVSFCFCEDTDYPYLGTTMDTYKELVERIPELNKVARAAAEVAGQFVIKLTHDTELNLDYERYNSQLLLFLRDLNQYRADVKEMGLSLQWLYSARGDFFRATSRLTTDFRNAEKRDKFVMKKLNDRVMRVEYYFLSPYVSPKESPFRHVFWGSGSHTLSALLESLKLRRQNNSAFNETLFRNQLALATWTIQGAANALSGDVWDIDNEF
T3 sequence (P02786 whole entry): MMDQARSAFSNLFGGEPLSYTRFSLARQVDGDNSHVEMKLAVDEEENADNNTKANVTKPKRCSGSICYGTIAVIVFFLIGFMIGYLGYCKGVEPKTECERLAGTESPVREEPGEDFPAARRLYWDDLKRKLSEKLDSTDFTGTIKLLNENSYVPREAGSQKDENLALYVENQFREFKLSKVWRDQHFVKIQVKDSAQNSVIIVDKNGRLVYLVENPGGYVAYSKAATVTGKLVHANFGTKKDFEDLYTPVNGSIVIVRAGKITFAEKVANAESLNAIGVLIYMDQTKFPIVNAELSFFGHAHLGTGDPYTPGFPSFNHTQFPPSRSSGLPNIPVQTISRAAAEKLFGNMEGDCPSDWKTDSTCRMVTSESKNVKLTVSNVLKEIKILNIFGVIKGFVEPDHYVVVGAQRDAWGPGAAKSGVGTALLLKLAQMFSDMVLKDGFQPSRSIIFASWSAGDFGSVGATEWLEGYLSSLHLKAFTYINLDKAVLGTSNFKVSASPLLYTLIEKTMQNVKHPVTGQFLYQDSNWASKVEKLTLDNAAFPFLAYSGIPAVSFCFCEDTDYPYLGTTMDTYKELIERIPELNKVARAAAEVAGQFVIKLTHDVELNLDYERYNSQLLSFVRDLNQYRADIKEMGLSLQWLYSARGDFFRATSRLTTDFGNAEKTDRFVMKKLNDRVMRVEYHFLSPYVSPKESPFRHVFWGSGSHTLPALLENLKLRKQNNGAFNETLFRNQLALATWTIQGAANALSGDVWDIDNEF

B1: TXP1-R1-1 (Fc fusion)
chain: ARVDQTPQTATKETGESLTINCVLRDSNCALSSTYWYRKKSGSTNEENISKGGRYVETVNSGSKSFSLKINDLTVEDSGTYRCNVVGTWCMSWRDVYGGGTAVTVNA
notes: Single-region variant of TXP1; tested in crude expression media; not shown: human IgG1 Fc (hFc) with AEF mutations incl. deletion of G236 (printed AG236)
For the molecule B1, the “hTfR1 binding relative to parental TXP1 (fold)” value with recombinant human TfR-1 [1] came to 0.5 fold.

B2: TXP1-R1-3 (Fc fusion)
chain: ARVDQTPQTSTKETGESLTINCVLRDSNCALSSTYWYRKKSGSTNEENISKGGRYVETVNSGSKSFSLKINDLTVEDSGTYRCNVVGTWCMSWRDVYGGGTAVTVNA
notes: as for B1
As for B2, in the assay with recombinant human TfR-1 [1], the “hTfR1 binding relative to parental TXP1 (fold)” value amounted to 0.5 fold.

B3: TXP1D1 (Fc fusion)
chain: ARVDQTPQTATKETGESLTINCVLRDSNCALSSTYWYRKKSGSTNEENISKGGRYVETVDSGTKSFSLKINDLTVEDSGTYRCNVVGTWCMSWRDVSGDGTVVTVNA
notes: Fully deimmunized variant of TXP1, VNAR-hFc format; also called TXPID1; not shown: human IgG1 Fc (hFc) with AEF mutations incl. deletion of G236 (printed AG236)
For B3, the Kd is 2.2 nM in assay [2] and 4.6 nM in the assay with recombinant human TfR-1 [5]. Besides, the koff in assay [2] amounted to 0.00016 s⁻¹; in the assay with recombinant human TfR-1 [5], 0.00031 s⁻¹. Moreover, the kon in assay [2] was 73000 M⁻¹ s⁻¹; in the assay with recombinant human TfR-1 [5] it was 67000 M⁻¹ s⁻¹. Besides, the EC50 came to 2.2 nM in assay [3], 3.5 nM in the assay with recombinant human TfR-1 [4] and 1.6 nM in assay [6].

B4: TXP1-R1-4 (Fc fusion)
chain: ARVDQTPQTTTKETGESLTINCVLRDSNCALSSTYWYRKKSGSTNEENISKGGRYVETVNSGSKSFSLKINDLTVEDSGTYRCNVVGTWCMSWRDVYGGGTAVTVNA
notes: as for B1
Take B4: the “hTfR1 binding relative to parental TXP1 (fold)” value with recombinant human TfR-1 [1] was found to be 0.5 fold.

B5: TXP1-R2-10 (Fc fusion)
chain: ARVDQTPQTITKETGESLTINCVLRDSNCALSSTYWYRKKSGSTNEENISKGGKYVETVQSGSKSFSLKINDLTVEDSGTYRCNVVGTWCMSWRDVYGGGTAVTVNA
notes: as for B1
With B5, the “hTfR1 binding relative to parental TXP1 (fold)” value with recombinant human TfR-1 [1] is 0.5 fold.

B6: TXP1-R2-4 (Fc fusion)
chain: ARVDQTPQTITKETGESLTINCVLRDSNCALSSTYWYRKKSGSTNEENISKGGRSVETVNSGSKSFSLKINDLTVEDSGTYRCNVVGTWCMSWRDVYGGGTAVTVNA
notes: as for B1
As to B6, in the assay with recombinant human TfR-1 [1], the “hTfR1 binding relative to parental TXP1 (fold)” value is 0.5 fold.

B7: TXP1-R2-9 (Fc fusion)
chain: ARVDQTPQTITKETGESLTINCVLRDSNCALSSTYWYRKKSGSTNEENISKGGKYVETVESGSKSFSLKINDLTVEDSGTYRCNVVGTWCMSWRDVYGGGTAVTVNA
notes: as for B1
Consider B7, for which, in the assay with recombinant human TfR-1 [1], the “hTfR1 binding relative to parental TXP1 (fold)” value is 0.5 fold.

B8: TXP1-R2-6 (Fc fusion)
chain: ARVDQTPQTITKETGESLTINCVLRDSNCALSSTYWYRKKSGSTNEENISKGGRYVETVDSGTKSFSLKINDLTVEDSGTYRCNVVGTWCMSWRDVYGGGTAVTVNA
notes: as for B1
For the molecule B8, the “hTfR1 binding relative to parental TXP1 (fold)” value in the assay with recombinant human TfR-1 [1] came to 0.5 fold.

B9: TXP1-R2-2 (Fc fusion)
chain: ARVDQTPQTITKETGESLTINCVLRDSNCALSSTYWYRKKSGSTNEENISKGGRHVETVNSGSKSFSLKINDLTVEDSGTYRCNVVGTWCMSWRDVYGGGTAVTVNA
notes: as for B1
As for B9, the “hTfR1 binding relative to parental TXP1 (fold)” value with recombinant human TfR-1 [1] came out at 0.5 fold.

B10: TXP1-R1-2 (Fc fusion)
chain: ARVDQTPQTETKETGESLTINCVLRDSNCALSSTYWYRKKSGSTNEENISKGGRYVETVNSGSKSFSLKINDLTVEDSGTYRCNVVGTWCMSWRDVYGGGTAVTVNA
notes: as for B1
With B10, the “hTfR1 binding relative to parental TXP1 (fold)” value with recombinant human TfR-1 [1] stood at 0.5 fold.

B11: TXP1-R2-3 (Fc fusion)
chain: ARVDQTPQTITKETGESLTINCVLRDSNCALSSTYWYRKKSGSTNEENISKGGRNVETVNSGSKSFSLKINDLTVEDSGTYRCNVVGTWCMSWRDVYGGGTAVTVNA
notes: as for B1
Regarding B11, the “hTfR1 binding relative to parental TXP1 (fold)” value with recombinant human TfR-1 [1] worked out at 0.5 fold.

B12: TXP1-R2-5 (Fc fusion)
chain: ARVDQTPQTITKETGESLTINCVLRDSNCALSSTYWYRKKSGSTNEENISKGGRTVETVNSGSKSFSLKINDLTVEDSGTYRCNVVGTWCMSWRDVYGGGTAVTVNA
notes: as for B1
For B12, in the assay with recombinant human TfR-1 [1], the “hTfR1 binding relative to parental TXP1 (fold)” value was 0.5 fold.

B13: TXP1D4 (Fc fusion)
chain: ARVDQTPQTATKETGESLTINCVLRDSNCALSSTYWYRKKSGSTNEENISKGGKYVETVESGSKSFSLKINDLTVEDSGTYRCNVVGTWCMSWRDVSGDGTVVTVNA
notes: Fully deimmunized variant of TXP1, VNAR-hFc format; also called TXPID4; not shown: human IgG1 Fc (hFc) with AEF mutations incl. deletion of G236 (printed AG236)
In the case of B13, the figures for the Kd (in assay [2]; with recombinant human TfR-1 [5]) were 1.7 nM and 3 nM, respectively. The koff in assay [2] was found to be 0.00014 s⁻¹; with recombinant human TfR-1 [5], 0.00026 s⁻¹. Further, the kon (in assay [2]; in the assay with recombinant human TfR-1 [5]) was 87000 M⁻¹ s⁻¹ each time. For the same molecule, the EC50 worked out at 3 nM in assay [3], 4.1 nM with recombinant human TfR-1 [4] and 2.1 nM in assay [6].

As a reminder, the Kd is a measure of binding affinity in units of concentration. As usually defined, the koff is the rate constant with which the complex falls apart. Broadly, the kon is the second-order rate constant of association. By EC50 is commonly meant the concentration at which the effect is half-maximal.
